Data reported in patent publication US20160053025A1 (SAMSUNG ELECTRONICS, published 2016).

What was measured:
hTie2-Fc (R&D Systems) = biological target: T1, hTie2-Fc (R&D Systems) (human, UniProt Q02763 23-745); assay: Complex ELISA: plate coated with Tie2-Fc (4 ug/ml), 10D6 2 ug/ml without Ang2, anti-mouse IgG-HRP, OD450
T1 construct: Bought fusion protein; also called hTie-2/Fc fusion protein; not shown: Fc of human IgG1
Experimental: A 96-well MaxiSorp™ flat-bottom plate (Nunc) was coated with 4 μg/ml of Tie2-Fc (R&D systems) or BSA (Sigma). Then, the plate was washed five times with 0.05% (v/v) Tween-20-containing PBS (Phosphate Buffer Saline) and blocked with 1% (v/v) BSA (Bovine serum albumin; Sigma)-containing PBS at a room temperature for 2 hours. […] After that, an anti-mouse IgG antibody (Sigma) conjugated with HRP diluted in 1% (v/v) BSA-containing PBS at a ratio of 1:5,000 (v/v) was added in an amount of 100 ul to each well to react at a room temperature for 1 hour and then, the plate was washed five times with PBST. Lastly, 100 ul (microliter) of TMB substrate (Cell Signaling) was added to each well of the plate to induce color development for 3 min. and then, the reaction was ceased by the addition of 100 ul of Stop solution (Cell Signaling) and OD450 values were measured on a plate reader (Molecular Devices).

[1] = biological target: T2, Ang2 protein (R&D systems) (human, UniProt O15123 19-496); assay: cell-based or functional assay
T2 sequence: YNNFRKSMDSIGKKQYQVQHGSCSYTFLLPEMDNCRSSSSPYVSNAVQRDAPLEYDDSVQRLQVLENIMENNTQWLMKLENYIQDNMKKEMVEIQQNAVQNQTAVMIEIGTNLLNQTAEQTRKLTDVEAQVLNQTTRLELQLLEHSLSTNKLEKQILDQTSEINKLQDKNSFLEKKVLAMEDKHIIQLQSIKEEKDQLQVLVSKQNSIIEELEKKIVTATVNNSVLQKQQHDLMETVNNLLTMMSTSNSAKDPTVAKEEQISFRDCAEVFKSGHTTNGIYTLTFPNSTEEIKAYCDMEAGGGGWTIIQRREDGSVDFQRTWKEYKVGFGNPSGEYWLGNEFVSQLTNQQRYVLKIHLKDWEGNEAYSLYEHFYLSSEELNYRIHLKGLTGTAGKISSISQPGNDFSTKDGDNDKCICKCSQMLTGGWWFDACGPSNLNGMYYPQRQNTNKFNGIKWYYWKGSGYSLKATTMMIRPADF

[2] = biological target: T3, Ang2 RBD Y460A, FLAG-tagged (human, UniProt O15123 281-496, limits assumed); assay: ELISA, antibody coated, FLAG-tagged mutant Ang2 RBD detected with anti-FLAG-HRP
T3 chain: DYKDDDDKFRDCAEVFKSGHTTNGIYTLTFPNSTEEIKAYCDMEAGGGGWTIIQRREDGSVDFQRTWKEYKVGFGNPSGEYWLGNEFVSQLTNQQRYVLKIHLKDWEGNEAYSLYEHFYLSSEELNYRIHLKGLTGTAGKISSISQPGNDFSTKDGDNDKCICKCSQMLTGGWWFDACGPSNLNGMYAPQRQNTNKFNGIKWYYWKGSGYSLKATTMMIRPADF
Experimental: To verify the epitope (or specific binding site) of the anti-Ang2 antibody prepared in Reference Example 2.3, an ELISA was performed using a recombinant protein where a receptor binding domain (RBD) of Ang2 protein in the form of being tagged with Flag was mutated by artificial means.
Each well of a 96-well MaxiSorp™ flat-bottom plate (Nunc) was coated with 50 ul (microliter) of 1000 nM antibody. Then, the plate was washed five times with 0.05% (v/v) Tween-20-containing PBS (PBST) and blocked with 1% (v/v) BSA-containing PBS at a room temperature for 2 hours. 250 ng of each mutant Ang2 protein obtained by substituting S417, Q418, P419, N421, 1434, D448, A449, P452, Y460, N467, K468, or F469 residue of Ang2 protein tagged with a FLAG sequence ([…], Sigma) at its N-terminal with alanine was added to each well of the plate, which was then allowed to react at a room temperature for 2 hours.
Finally, 50 ul of TMB substrates (Cell signaling) was added to each well of the plate to induce color development at a room temperature for 3 min. and the reaction was ceased by the addition of 50 ul of Stop solution (Cell signaling) and then, OD450 values were measured on a plate reader (Molecular Devices). By comparing binding affinities with mutated Ang2 to those of unmutated Ang2, each epitope of Ang2 antibodies was identified. The obtained measurement results of the binding affinities (%) with mutant Ang2 against the binding affinity with the native Ang2 are shown in the following Table 13.

BSA = biological target: T4, BSA (Bos taurus, UniProt P02769); assay: Complex ELISA: plate coated with BSA, 10D6 2 ug/ml with or without FLAG-Ang2 0.25 ug/ml, anti-mouse IgG-HRP, OD450
T4 construct: commercial preparation; also called Bovine serum albumin; Sigma
T4 sequence (P02769 25-607 limits assumed): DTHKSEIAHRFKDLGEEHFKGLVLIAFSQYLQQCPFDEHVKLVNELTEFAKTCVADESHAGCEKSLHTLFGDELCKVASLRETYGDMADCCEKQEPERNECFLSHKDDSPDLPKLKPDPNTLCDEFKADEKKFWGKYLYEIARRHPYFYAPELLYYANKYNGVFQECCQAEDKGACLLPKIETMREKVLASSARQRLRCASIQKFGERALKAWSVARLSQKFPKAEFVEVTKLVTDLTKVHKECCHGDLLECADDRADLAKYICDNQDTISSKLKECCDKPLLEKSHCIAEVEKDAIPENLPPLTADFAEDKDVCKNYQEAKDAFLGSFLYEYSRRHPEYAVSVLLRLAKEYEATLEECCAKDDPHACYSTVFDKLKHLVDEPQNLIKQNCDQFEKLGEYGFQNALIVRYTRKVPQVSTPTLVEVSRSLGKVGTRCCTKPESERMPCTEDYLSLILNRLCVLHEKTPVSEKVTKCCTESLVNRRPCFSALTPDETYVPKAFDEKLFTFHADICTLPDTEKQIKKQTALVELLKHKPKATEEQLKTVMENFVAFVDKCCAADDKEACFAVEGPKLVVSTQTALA
Experimental: A 96-well MaxiSorp™ flat-bottom plate (Nunc) was coated with 4 μg/ml of Tie2-Fc (R&D systems) or BSA (Sigma). Then, the plate was washed five times with 0.05% (v/v) Tween-20-containing PBS (Phosphate Buffer Saline) and blocked with 1% (v/v) BSA (Bovine serum albumin; Sigma)-containing PBS at a room temperature for 2 hours. 0.25 μg/ml of Ang2 and 2 μg/ml of 10D6 antibody were added to each well of the plate, which was allowed to react at a room temperature for 2 hours and then washed five times with PBST. After that, an anti-mouse IgG antibody (Sigma) conjugated with HRP diluted in 1% (v/v) BSA-containing PBS at a ratio of 1:5,000 (v/v) was added in an amount of 100 ul to each well to react at a room temperature for 1 hour and then, the plate was washed five times with PBST. Lastly, 100 ul (microliter) of TMB substrate (Cell Signaling) was added to each well of the plate to induce color development for 3 min. and then, the reaction was ceased by the addition of 100 ul of Stop solution (Cell Signaling) and OD450 values were measured on a plate reader (Molecular Devices).

T1 sequence (Q02763 23-745 limits assumed): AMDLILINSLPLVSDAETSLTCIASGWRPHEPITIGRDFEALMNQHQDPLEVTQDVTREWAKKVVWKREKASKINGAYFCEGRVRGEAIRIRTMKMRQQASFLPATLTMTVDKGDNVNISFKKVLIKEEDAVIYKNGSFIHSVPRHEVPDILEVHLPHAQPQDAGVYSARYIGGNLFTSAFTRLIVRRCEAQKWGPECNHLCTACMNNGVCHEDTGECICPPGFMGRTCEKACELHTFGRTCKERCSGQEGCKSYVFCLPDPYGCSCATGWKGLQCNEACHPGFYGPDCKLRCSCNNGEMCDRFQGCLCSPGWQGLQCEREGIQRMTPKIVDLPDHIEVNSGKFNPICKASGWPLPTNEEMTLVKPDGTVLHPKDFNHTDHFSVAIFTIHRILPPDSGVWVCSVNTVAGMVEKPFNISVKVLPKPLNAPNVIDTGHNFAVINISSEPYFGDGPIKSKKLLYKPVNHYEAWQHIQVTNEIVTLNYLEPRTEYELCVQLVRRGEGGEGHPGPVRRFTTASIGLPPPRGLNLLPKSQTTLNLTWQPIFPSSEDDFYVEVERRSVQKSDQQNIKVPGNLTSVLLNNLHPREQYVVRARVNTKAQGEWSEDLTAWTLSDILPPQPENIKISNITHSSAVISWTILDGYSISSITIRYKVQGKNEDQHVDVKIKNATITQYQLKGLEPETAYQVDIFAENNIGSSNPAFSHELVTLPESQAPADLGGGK

B1: SAIT-ANG2-AB-m10D6 (antibody, V domains shown)
VH: DVQLQESGPDLVKPSQSLSLTCTVTGYSITSDYAWNWIRQFPGNKLEWMGYINYSGNTDYNPSLKSRSSITRDTSKNQFFLQLNSVTTGDTATYYCARGNFEGAMDYWGQGTSVTVSS
VL: SIVMTQTPKFLLVSAGDRVTITCKASQSVSNDVAWYQQKPGQSPKLLIYYASNRYPGVPDRFTGSGYGTDFTFTISTVQAEDLAVYFCQQDYSSPWTFGGGTKLEIK
notes: Mouse monoclonal antibody purified from a hybridoma (KCLRF-BP-00295); it is not applied here; also called mouse antibody 10D6; 10D6 antibody
binding result (hTie2-Fc (R&D Systems)): no binding (tested: 2 ug/ml) | Tie2 phosphorylation effect against control antibody RG [1]: ~8.6 fold | Tie2 phosphorylation level (pTyr/Tie2 ratio, HUVEC, 60 nM antibody) [1]: 180% | binding affinity (%) with mutant Ang2 against the binding affinity with the native Ang2 [2]: 103% | binding result (BSA): no binding (tested: 2 ug/ml)
